Entries after “also recorded” stand apart in the source; their conditions may differ.
Legend:
[1] = system: NLRC4 inflammasome; test: Flagellin-induced caspase-1 activation in wild type BMDM pre-treated with NRTIs, immunoblot; type: cell-based, mouse; conditions: pre-treated 1 hour, flagellin 3 μg/ml (FIG. 31)
Protocol: FIG. 27. NRTI block Flagellin induced NLRC4 inflammasome in BMDM. Wild type BMDM cells were pre-treated with exemplary NRTIs (D4T, 3TC) at 100 μM for 1 hour, and then stimulated with flagellin transfection (3 μg/ml). Supernatant and cell lysate were collected for Caspase-1 detection. […] The caspase-1 (p20) bands are indicated with black arrow.
FIG. 28. NRTI (3TC) blocks flagellin-induced NLRC4 inflammasome in a dose dependent manner. Wild type BMDM cell were pre-treated with indicated dose of NRTI (3TC) for 1 hour, and then stimulated with Flagellin transfection (3 μg/ml). Supernatants were collected for Caspase-1 detection. […] The caspase-1 (p20) bands are indicated with black arrow.
FIG. 31. Modified NRTIs (K8, K9) block flagellin-induced NLRC4 inflammasome in BMDM. Wild type BMDM cell were pre-treated with regular NRTI (D4T, 3TC), the modified NRTIs 3-Methyl-3TC (K9) or 2-Ethyl-AZT (K8), or NLRP3 inhibitors (MCC950, CY-09) for 1 hour, and then stimulated with flagellin transfection (3 μg/ml). Supernatants were collected for secreted caspase-1 detection. […] The caspase-1 (p20) bands are indicated with black arrow.
Nucleoside reverse transcriptase inhibitors (NRTIs) are HIV therapeutics that inhibit retrovirus replication. We have previously shown that NRTIs inhibit P2X7-mediated NLRP3 inflammasome activation by an endogenous retroelement Alu RNA (SEQ ID NO: 86). Activation of NLRP3 inflammasome by Alu RNA (SEQ ID NO: 86) causes the death of retinal pigment epithelium (RPE) in geographic atrophy, a severe form of AMD. […] Currently, multiple NLRP3 inflammasome inhibitors such as MCC950, CY09 are available however, there are no inhibitors of NLRC4. So, a need exists to develop inhibitors of NLRC4 inflammasome to study NLRC4 driven diseases. Here, we show for the first time that NRTIs block flagellin induced NLRC4 inflammasome. We pretreated flagellin transfected BMDMs with DT4 and 3TC to examine caspase-1 activation.
NLRC4 oligomerization is another hallmark of inflammasome activation where high-molecular mass NLRC4 protein complexes are assembled. […]

[2] = biological target: Ddx17 (bait of the Ddx complex, Table 3) (UniProt Q92841); test: IP tandem mass spectrometry of the Ddx17 complex, Alu RNA-treated
[3] = biological target: Ddx17 (bait of the Ddx complex, Table 3) (UniProt Q92841); test: IP tandem mass spectrometry of the Ddx17 complex, mock-treated
[4] = system: NLRC4 phosphorylation (site S533); test: SINE RNA induced NLRC4 phosphorylation (S533) in BMDM, Western blot; type: cell-based, mouse; conditions: SINE RNAs each at 100 pmol, polyI:C 10 μg/ml (FIG. 1)
Protocol: FIG. 1. SINE RNA induced NLRC4 phosphorylation (site S533) in mice macrophage (BMDM). Mouse bone marrow derived macrophage (BMDM) were treated with SINE RNAs (Alu (SEQ ID NO: 86), B1 (SEQ ID NO: 87), and B2 (SEQ ID NO: 88), each at 100 pmol), and polyI:C (10 μg/ml). Phosphorylated Nlrc4 (p-Nlrc4) and total Nlrc4 (t-Nlrc4) were detected by Western blot. Actin is provided as a loading control. The p-NLRC4 bands were indicated by black arrow.
Previous studies have shown that NLRC4 inflammasome activation in response to Salmonella exposure requires two steps for its activation, phosphorylation on Ser533 residue of NLRC4 and NAIP mediated oligomerization of NLRC4. […] Moreover, treatment with SINE RNAs induced caspase-1 p20 cleavage, indicative of inflammasome activation (FIG. 2). For the subsequent experiments in this study, we used Alu RNA (SEQ ID NO: 86) as the stimulus to activate the NLRC4 inflammasome. To date, two kinases are reported to phosphorylate NLRC4 at S533: protein kinase C delta (PKCδ) and leucine rich repeat-containing kinase-2 (LRRK2). To explore the roles of these kinases in Alu RNA (SEQ ID NO: 86) induced NLRC4 phosphorylation, we pretreated BMDMs with pharmacological inhibitors of LRRK2 (GSK2578215A, GSK) and PKCδ (Rottlerin, Rot) respectively.

[5] = system: caspase-1; test: Alu RNA induced caspase-1 activation in THP1 cells after siRNA knockdown; type: cell-based, human; conditions: siRNA knockdown (FIGS. 11A, 11B)
From the text: FIGS. 11A and 11B. Ddx17 involved in Alu RNA (SEQ ID NO: 86) induced inflammasome independent of its microprocessor function. DDX17 is a component of microprocessor complexes with DDX5 and Drosha. To test whether the microprocessor function of DDX17 is required for Alu RNA (SEQ ID NO: 86) induced inflammasome, we measured caspase-1 activation in THP cells with DDX5 or Drosha knockdown (siRNA for DDX5: GGAAAUUACAGUUAGAGGU; SEQ ID NO: 89); siRNA for Drosha: GACAAGUUGAUAGGAUAUA; SEQ ID NO: 90). FIG. 11A. siRNA mediated Ddx17 knockdown, but not Ddx5 in THP1 cells, blocked Alu RNA (SEQ ID NO: 86) induced caspase-1 activation. […] The caspase-1 (p20) bands were indicated with black arrows.
We next examined whether DDX5 or DDX17 was the sensor for Alu RNA (SEQ ID NO: 86) induced NLRC4 inflammasome activation. Due to the high degree of similarity in the sequences of DDX5 and DDX17, we designed 3 siRNAs targeting DDX5 alone, DDX17 alone, or both DDX5 and DDX17, and confirmed their target efficiency in THP1 cells (FIG. 11A). […] Therefore, we tested whether Drosha is also involved in SINE RNA-DDX17-NLRC4 axis. […] These observations implicate that DDX17 mediated SINE RNA induced NLRC4 inflammasome is independent of microprocessor function.

[6] = system: ASC specks; test: SINE RNA induced ASC specks in BMDM, immunofluorescence; type: cell-based, mouse; conditions: BMDMs, transfection vs Mock (FIG. 3A)
Protocol: FIGS. 3A and 3B. SINE RNA-induced ASC oligomerization is dependent on NLRC4 (BMDM). FIG. 3A. Immunofluorescence images of endogenous ASC specks and NLRC4 puncta in BMDMs after transfected with Alu (SEQ ID NO: 86) or B2 (SEQ ID NO: 88) RNA or transfection reagents only (Mock). […] Moreover, NLRC4 proteins assembled as puncta, and co-resided with ASC specks. FIG. 3B. ASC oligomerizations were evaluated in wild-type and Nlrc4^−/− BMDMs through cross-linking and western blot. […] The bands of oligomeric ASC protein were indicated by black arrow.
The activated NLRC4 inflammasome undergoes oligomerization by assembling into high-molecular mass multiprotein complexes. We first investigated in situ assembling of NLRC4 and apoptosis speck (ASC) like protein complexes in response to SINE RNA treatment of BMDMs. Immunofluorescence studies show increased NLRC4 and ASC specks in SINE RNA-treated BMDMs compared to mock-treated cells (FIG. 3A). To assess NLRC4 inflammasome assembly, WT and NLRC4 KO BMDM cells were treated with Alu RNA (SEQ ID NO: 86). Disuccinimidyl suberate (DSS) cross-linked lysates were resolved using denaturing SDS-PAGE to detect ASC oligomers and cell lysates were resolved using native polyacrylamide gel electrophoresis (NATIVE-PAGE) to detect NLRC4 oligomerization. […] NLRC4/ASC oligomerization is essential for the cleavage of pro-caspase-1 into its active form p20 and IL-1β release.

Chain of Ddx17 (bait of the Ddx complex, Table 3) (Q92841 whole entry, one chain of several): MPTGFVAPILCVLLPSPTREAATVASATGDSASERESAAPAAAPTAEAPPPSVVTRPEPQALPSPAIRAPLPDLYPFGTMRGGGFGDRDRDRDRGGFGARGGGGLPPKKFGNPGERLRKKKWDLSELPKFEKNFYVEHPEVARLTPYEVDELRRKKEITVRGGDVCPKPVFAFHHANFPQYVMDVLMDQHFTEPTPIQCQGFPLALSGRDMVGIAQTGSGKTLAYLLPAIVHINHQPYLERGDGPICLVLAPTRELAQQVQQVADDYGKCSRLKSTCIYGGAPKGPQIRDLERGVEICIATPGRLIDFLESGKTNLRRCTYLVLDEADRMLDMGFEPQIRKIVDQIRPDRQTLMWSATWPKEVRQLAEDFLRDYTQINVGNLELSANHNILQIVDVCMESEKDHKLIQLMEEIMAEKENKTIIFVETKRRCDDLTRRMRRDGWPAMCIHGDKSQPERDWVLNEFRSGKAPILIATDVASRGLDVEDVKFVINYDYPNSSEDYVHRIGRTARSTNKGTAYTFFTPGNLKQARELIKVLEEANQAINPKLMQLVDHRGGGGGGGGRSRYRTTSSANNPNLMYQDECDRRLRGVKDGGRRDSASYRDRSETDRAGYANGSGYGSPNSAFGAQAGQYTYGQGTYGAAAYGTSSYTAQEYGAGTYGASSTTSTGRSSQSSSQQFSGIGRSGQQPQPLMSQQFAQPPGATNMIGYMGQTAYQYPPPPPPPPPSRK

Coverage (%) [2] | Peptides [2] | Coverage (%) [3] | Peptides [3] | Molecule | further results
– | – | – | – | 3-Methyl-3TC [K9] | flagellin induced caspase-1 activation, modified NRTIs [1]: blocked; also recorded: inhibited
2.9% | 2 peptides | 0% | 0 peptides | Nlrp8 (Table 3) (from UniProt Q86W28 1-1048) (receptor) | –
– | – | – | – | poly(I:C) | NLRC4 phosphorylation on S533 in BMDMs [4]: did not induce
– | – | – | – | DDX5 siRNA: siRNA for DDX5: GGAAAUUACAGUUAGAGGU; SEQ ID NO: 89 (chemistry not fully specified) | caspase-1 cleavage in Alu RNA treated THP1 cells [5]: did not do so
– | – | – | – | siDrosha: siRNA for Drosha: GACAAGUUGAUAGGAUAUA; SEQ ID NO: 90 (listed as RNA, chemistry not given here) | caspase-1 cleavage in Alu RNA treated THP1 cells [5]: did not
6.6% | 2 peptides | 0% | 0 peptides | Nlrp1 (Table 3) (from UniProt Q9C000 1-1473) (receptor) | –
25% | 15 peptides | 17% | – | Ddx5 (Table 3) (from UniProt P17844 1-614) (enzyme) | –
3.7% | 3 peptides | 0% | 0 peptides | Nlrp3 (Table 3) (from UniProt Q96P20 1-1036) (receptor) | –
– | – | – | 10 peptides | Ddx5 (Table 3) (from UniProt P17844 1-614) | –
– | – | – | – | 2-Ethyl-AZT [K8] | flagellin induced caspase-1 activation, modified NRTIs [1]: blocked; also recorded: inhibited
– | – | – | – | B2: mouse SINE B2 RNA, SEQ ID NO: 88 (nucleic acid, Artificially synthesized B2 RNA) GGGCUGGAGAGAUGGCUCAGUGGUUAAGAGCACCUGACUGCUCUUCCAGAGGUCCUGAGUUCAAUUCCCAGCAACCACAUGGUGGCUCACAACCAUCUGUAAUGAGAUCUGAUGCCCUCUUCUGGUGUGUCUGAAGACAGCUACAGUGUACUUACAUAUAAUAAAUAAAUAAAUAAAUAAAUCUUAAAAAAAAAAAAAAGAAAGAAAAA | NLRC4 phosphorylation on S533 in BMDMs [4]: induced; formation of ASC specks [6]: induced the formation of ASC specks
